In patent US20240018502A1 one finds EC50 of hC3 cleavage data, which are given here for 14 molecules.

For this assay, the target named is plasma purified human complement protein C3 (human) (UniProt P01024). The assay can be described thus: cell-based or functional assay.
Sequence of plasma purified human complement protein C3 (human) (P01024 23-667, chain 1 of 2): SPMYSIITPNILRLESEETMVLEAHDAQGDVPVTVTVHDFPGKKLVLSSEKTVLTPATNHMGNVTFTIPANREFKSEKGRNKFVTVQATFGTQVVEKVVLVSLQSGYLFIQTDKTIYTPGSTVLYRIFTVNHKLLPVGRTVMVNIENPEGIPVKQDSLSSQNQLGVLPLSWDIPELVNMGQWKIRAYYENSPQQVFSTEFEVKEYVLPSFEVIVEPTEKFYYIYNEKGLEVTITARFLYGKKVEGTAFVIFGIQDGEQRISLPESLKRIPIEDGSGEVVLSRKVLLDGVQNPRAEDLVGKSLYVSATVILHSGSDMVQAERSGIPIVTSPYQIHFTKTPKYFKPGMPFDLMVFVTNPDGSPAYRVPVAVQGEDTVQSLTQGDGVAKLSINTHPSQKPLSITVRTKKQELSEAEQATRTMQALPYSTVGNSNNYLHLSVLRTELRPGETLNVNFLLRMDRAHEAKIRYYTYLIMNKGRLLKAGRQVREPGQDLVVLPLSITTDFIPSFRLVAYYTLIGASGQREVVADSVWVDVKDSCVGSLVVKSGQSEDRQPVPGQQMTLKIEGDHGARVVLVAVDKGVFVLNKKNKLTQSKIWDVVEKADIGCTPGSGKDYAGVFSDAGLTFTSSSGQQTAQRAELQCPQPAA
Sequence of plasma purified human complement protein C3 (human) (P01024 672-1663, chain 2 of 2): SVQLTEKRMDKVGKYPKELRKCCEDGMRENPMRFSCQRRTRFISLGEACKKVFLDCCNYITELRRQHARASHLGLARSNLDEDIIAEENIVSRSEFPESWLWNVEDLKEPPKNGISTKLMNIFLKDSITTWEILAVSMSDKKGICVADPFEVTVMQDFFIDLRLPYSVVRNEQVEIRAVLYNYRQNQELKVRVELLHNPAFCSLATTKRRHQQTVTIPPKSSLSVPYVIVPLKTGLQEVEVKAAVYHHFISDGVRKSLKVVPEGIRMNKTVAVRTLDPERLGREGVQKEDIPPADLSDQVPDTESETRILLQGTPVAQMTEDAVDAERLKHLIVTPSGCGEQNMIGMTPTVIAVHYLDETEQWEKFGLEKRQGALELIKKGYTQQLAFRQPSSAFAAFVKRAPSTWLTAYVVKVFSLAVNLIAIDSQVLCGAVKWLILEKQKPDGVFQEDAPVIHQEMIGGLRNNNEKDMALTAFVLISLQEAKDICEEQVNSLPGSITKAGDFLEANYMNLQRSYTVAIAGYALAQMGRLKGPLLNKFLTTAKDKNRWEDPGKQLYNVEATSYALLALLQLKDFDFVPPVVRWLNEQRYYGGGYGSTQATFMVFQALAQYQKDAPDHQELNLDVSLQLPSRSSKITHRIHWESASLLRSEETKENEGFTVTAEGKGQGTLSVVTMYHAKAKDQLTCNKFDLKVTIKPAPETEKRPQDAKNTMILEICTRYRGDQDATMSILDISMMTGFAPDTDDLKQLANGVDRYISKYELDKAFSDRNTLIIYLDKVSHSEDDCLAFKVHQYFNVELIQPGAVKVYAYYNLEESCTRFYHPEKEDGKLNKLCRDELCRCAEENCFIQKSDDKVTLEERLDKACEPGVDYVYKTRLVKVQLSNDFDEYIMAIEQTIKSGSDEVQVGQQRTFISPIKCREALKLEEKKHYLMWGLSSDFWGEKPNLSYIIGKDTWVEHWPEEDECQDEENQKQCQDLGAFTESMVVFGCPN

B1: MTSP-1 I41T/F97W/F99L/C122S/G151N/Q175M/Q192G/D217L (enzyme)
chain: VVGGTDADEGEWPWQVSLHALGQGHTCGASLISPNWLVSAAHCYIDDRGFRYSDPTQWTAFLGLHDQSQRSAPGVQERRLKRIISHPFFNDWTLDYDIALLELEKPAEYSSMVRPISLPDASHVFPAGKAIWVTGWGHTQYGGTNALILQKGEIRVINQTTCENLLPQMITPRMMCVGFLSGGVDSCGGDSGGPLSSVEADGRIFQAGVVSWGLGCAQRNKPGVYTRLPLFRDWIKENTGV
Take B1: the EC50 of hC3 cleavage stood at 12.1 nM.

B2: MTSP-1 I41G/F97I/F99L/C122S/G151L/Q175M/Q192S/D217V (enzyme)
chain: VVGGTDADEGEWPWQVSLHALGQGHGCGASLISPNWLVSAAHCYIDDRGFRYSDPTQWTAFLGLHDQSQRSAPGVQERRLKRIISHPFFNDITLDYDIALLELEKPAEYSSMVRPISLPDASHVFPAGKAIWVTGWGHTQYGGTLALILQKGEIRVINQTTCENLLPQMITPRMMCVGFLSGGVDSCSGDSGGPLSSVEADGRIFQAGVVSWGVGCAQRNKPGVYTRLPLFRDWIKENTGV
Take B2: the EC50 of hC3 cleavage is 2.84 nM.

B3: MTSP-1 F97D/F99L/C122S/Q192G (enzyme)
chain: VVGGTDADEGEWPWQVSLHALGQGHICGASLISPNWLVSAAHCYIDDRGFRYSDPTQWTAFLGLHDQSQRSAPGVQERRLKRIISHPFFNDDTLDYDIALLELEKPAEYSSMVRPISLPDASHVFPAGKAIWVTGWGHTQYGGTGALILQKGEIRVINQTTCENLLPQQITPRMMCVGFLSGGVDSCGGDSGGPLSSVEADGRIFQAGVVSWGDGCAQRNKPGVYTRLPLFRDWIKENTGV
Take B3: the EC50 of hC3 cleavage came to 78.1 nM.

B4: MTSP-1 H40R/I41H/F97D/F99L/C122S/Q192G (enzyme)
chain: VVGGTDADEGEWPWQVSLHALGQGRHCGASLISPNWLVSAAHCYIDDRGFRYSDPTQWTAFLGLHDQSQRSAPGVQERRLKRIISHPFFNDDTLDYDIALLELEKPAEYSSMVRPISLPDASHVFPAGKAIWVTGWGHTQYGGTGALILQKGEIRVINQTTCENLLPQQITPRMMCVGFLSGGVDSCGGDSGGPLSSVEADGRIFQAGVVSWGDGCAQRNKPGVYTRLPLFRDWIKENTGV
B4 gave an EC50 of hC3 cleavage of 35.4 nM.

B5: MTSP-1 I41G/F97L/F99L/C122S/Q175A/Q192T/D217V (enzyme)
chain: VVGGTDADEGEWPWQVSLHALGQGHGCGASLISPNWLVSAAHCYIDDRGFRYSDPTQWTAFLGLHDQSQRSAPGVQERRLKRIISHPFFNDLTLDYDIALLELEKPAEYSSMVRPISLPDASHVFPAGKAIWVTGWGHTQYGGTGALILQKGEIRVINQTTCENLLPQAITPRMMCVGFLSGGVDSCTGDSGGPLSSVEADGRIFQAGVVSWGVGCAQRNKPGVYTRLPLFRDWIKENTGV
Take B5: the EC50 of hC3 cleavage was found to be 7.75 nM.

B6: MTSP-1 C122S/G193A (enzyme)
chain: VVGGTDADEGEWPWQVSLHALGQGHICGASLISPNWLVSAAHCYIDDRGFRYSDPTQWTAFLGLHDQSQRSAPGVQERRLKRIISHPFFNDFTFDYDIALLELEKPAEYSSMVRPISLPDASHVFPAGKAIWVTGWGHTQYGGTGALILQKGEIRVINQTTCENLLPQQITPRMMCVGFLSGGVDSCQADSGGPLSSVEADGRIFQAGVVSWGDGCAQRNKPGVYTRLPLFRDWIKENTGV
The molecule B6 gave an EC50 of hC3 cleavage of 44.7 nM.

B7: MTSP-1 H40R/I41H/F97D/C122S/G151N (enzyme)
chain: VVGGTDADEGEWPWQVSLHALGQGRHCGASLISPNWLVSAAHCYIDDRGFRYSDPTQWTAFLGLHDQSQRSAPGVQERRLKRIISHPFFNDDTFDYDIALLELEKPAEYSSMVRPISLPDASHVFPAGKAIWVTGWGHTQYGGTNALILQKGEIRVINQTTCENLLPQQITPRMMCVGFLSGGVDSCQGDSGGPLSSVEADGRIFQAGVVSWGDGCAQRNKPGVYTRLPLFRDWIKENTGV
Molecule B7 yielded an EC50 of hC3 cleavage of 110 nM.

B8: MTSP-1 C122S/G151N/G193A (enzyme)
chain: VVGGTDADEGEWPWQVSLHALGQGHICGASLISPNWLVSAAHCYIDDRGFRYSDPTQWTAFLGLHDQSQRSAPGVQERRLKRIISHPFFNDFTFDYDIALLELEKPAEYSSMVRPISLPDASHVFPAGKAIWVTGWGHTQYGGTNALILQKGEIRVINQTTCENLLPQQITPRMMCVGFLSGGVDSCQADSGGPLSSVEADGRIFQAGVVSWGDGCAQRNKPGVYTRLPLFRDWIKENTGV
In the case of B8, the EC50 of hC3 cleavage worked out at 85.7 nM.

B9: MTSP-1 F97E/F99L/C122S/D217I/K224N (enzyme)
chain: VVGGTDADEGEWPWQVSLHALGQGHICGASLISPNWLVSAAHCYIDDRGFRYSDPTQWTAFLGLHDQSQRSAPGVQERRLKRIISHPFFNDETLDYDIALLELEKPAEYSSMVRPISLPDASHVFPAGKAIWVTGWGHTQYGGTGALILQKGEIRVINQTTCENLLPQQITPRMMCVGFLSGGVDSCQGDSGGPLSSVEADGRIFQAGVVSWGIGCAQRNNPGVYTRLPLFRDWIKENTGV
With B9, the EC50 of hC3 cleavage was 6.33 nM.

B10: MTSP-1 C122S/G193E (enzyme)
chain: VVGGTDADEGEWPWQVSLHALGQGHICGASLISPNWLVSAAHCYIDDRGFRYSDPTQWTAFLGLHDQSQRSAPGVQERRLKRIISHPFFNDFTFDYDIALLELEKPAEYSSMVRPISLPDASHVFPAGKAIWVTGWGHTQYGGTGALILQKGEIRVINQTTCENLLPQQITPRMMCVGFLSGGVDSCQEDSGGPLSSVEADGRIFQAGVVSWGDGCAQRNKPGVYTRLPLFRDWIKENTGV
In turn, B10 displayed an EC50 of hC3 cleavage of 119 nM.

B11: MTSP-1 I41G/F97V/F99L/C122S/G151Q/Q175M/Q192A/D217L (enzyme)
chain: VVGGTDADEGEWPWQVSLHALGQGHGCGASLISPNWLVSAAHCYIDDRGFRYSDPTQWTAFLGLHDQSQRSAPGVQERRLKRIISHPFFNDVTLDYDIALLELEKPAEYSSMVRPISLPDASHVFPAGKAIWVTGWGHTQYGGTQALILQKGEIRVINQTTCENLLPQMITPRMMCVGFLSGGVDSCAGDSGGPLSSVEADGRIFQAGVVSWGLGCAQRNKPGVYTRLPLFRDWIKENTGV
The molecule B11 yielded an EC50 of hC3 cleavage of 9.74 nM.

B12: MTSP-1 I41G/F97S/F99L/C122S/G151N/Q175L/Q192G/D217I (enzyme)
chain: VVGGTDADEGEWPWQVSLHALGQGHGCGASLISPNWLVSAAHCYIDDRGFRYSDPTQWTAFLGLHDQSQRSAPGVQERRLKRIISHPFFNDSTLDYDIALLELEKPAEYSSMVRPISLPDASHVFPAGKAIWVTGWGHTQYGGTNALILQKGEIRVINQTTCENLLPQLITPRMMCVGFLSGGVDSCGGDSGGPLSSVEADGRIFQAGVVSWGIGCAQRNKPGVYTRLPLFRDWIKENTGV
For the molecule B12, the EC50 of hC3 cleavage was 6.84 nM.

B13: MTSP-1 H40R/I41H/C122S/G151N (enzyme)
chain: VVGGTDADEGEWPWQVSLHALGQGRHCGASLISPNWLVSAAHCYIDDRGFRYSDPTQWTAFLGLHDQSQRSAPGVQERRLKRIISHPFFNDFTFDYDIALLELEKPAEYSSMVRPISLPDASHVFPAGKAIWVTGWGHTQYGGTNALILQKGEIRVINQTTCENLLPQQITPRMMCVGFLSGGVDSCQGDSGGPLSSVEADGRIFQAGVVSWGDGCAQRNKPGVYTRLPLFRDWIKENTGV
In the case of B13, the EC50 of hC3 cleavage came to 59.6 nM.

B14: MTSP-1 D96_F97delinsWYY/T98P/F99L/C122S (enzyme)
chain: VVGGTDADEGEWPWQVSLHALGQGHICGASLISPNWLVSAAHCYIDDRGFRYSDPTQWTAFLGLHDQSQRSAPGVQERRLKRIISHPFFNWYYPLDYDIALLELEKPAEYSSMVRPISLPDASHVFPAGKAIWVTGWGHTQYGGTGALILQKGEIRVINQTTCENLLPQQITPRMMCVGFLSGGVDSCQGDSGGPLSSVEADGRIFQAGVVSWGDGCAQRNKPGVYTRLPLFRDWIKENTGV
Molecule B14 gave an EC50 of hC3 cleavage of 22.6 nM.
